Results published in patent US20220411483A1 (Chugai, published 2022).
Substitutions are numbered along the chain they refer to. Values belong to the binder of their own block, whether it stands above or below them.

Key:
[1] = target: T1, FcγRIIb extracellular domain with C-terminal His tag (human, UniProt P31994 43-217); experiment: SPR, antibody captured, FcgR analyte
T1 construct: extracellular domain; also called FcgRIIb; not shown: His tag at the C terminus
T1 sequence (looked up): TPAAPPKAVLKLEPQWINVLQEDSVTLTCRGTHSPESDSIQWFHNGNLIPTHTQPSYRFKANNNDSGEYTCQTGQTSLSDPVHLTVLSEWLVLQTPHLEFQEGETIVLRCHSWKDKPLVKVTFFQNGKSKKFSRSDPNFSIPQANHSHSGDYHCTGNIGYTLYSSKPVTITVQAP

[2] = target: T2, FcγRIa extracellular domain with C-terminal His tag (human, UniProt P12314 16-292); experiment: SPR, antibody captured, FcgR analyte
T2 construct: also called FcgRIa; CD64; not shown: His tag at the C terminus
T2 sequence (P12314 16-292): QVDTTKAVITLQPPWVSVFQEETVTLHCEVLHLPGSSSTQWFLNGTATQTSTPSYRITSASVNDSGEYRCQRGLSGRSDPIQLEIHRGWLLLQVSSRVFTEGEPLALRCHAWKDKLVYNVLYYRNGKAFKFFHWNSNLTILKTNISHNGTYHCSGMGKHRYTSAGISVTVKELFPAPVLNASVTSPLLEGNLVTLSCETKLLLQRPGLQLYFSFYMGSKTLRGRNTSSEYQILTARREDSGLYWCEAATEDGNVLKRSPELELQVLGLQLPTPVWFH

[3] = target: T3, FcγRIIa R type extracellular domain with C-terminal His tag (human, UniProt P12318 34-217); experiment: SPR, antibody captured, FcgR analyte
T3 construct: extracellular domain; also called FcgRIIaR; not shown: His tag at the C terminus
T3 sequence (looked up): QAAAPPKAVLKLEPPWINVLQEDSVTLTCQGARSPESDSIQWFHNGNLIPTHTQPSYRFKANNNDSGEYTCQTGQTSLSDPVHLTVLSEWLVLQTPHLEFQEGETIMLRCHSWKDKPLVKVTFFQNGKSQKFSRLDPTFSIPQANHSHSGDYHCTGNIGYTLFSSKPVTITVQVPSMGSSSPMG

[4] = target: T1, FcγRIIb extracellular domain with …; experiment: SPR; KD of IL6R-B3/IL6R-L divided by KD of variant
[5] = target: T3, FcγRIIa R type extracellular domain …; experiment: SPR; KD of IL6R-B3/IL6R-L divided by KD of variant
FcgRIIaR = target: T4, FcgRIIaR (human, UniProt P12318 34-217); experiment: SPR, amount bound per captured antibody
T4 construct: extracellular domain; also called FcγRIIa R type; FcγRIIa (R type)
T4 sequence (looked up): T3 sequence (looked up)

FcgRIIb = target: T5, FcgRIIb (human, UniProt P31994 43-217); experiment: SPR, amount bound per captured antibody
T5 construct: extracellular domain; also called FcγRIIb
T5 sequence (looked up): T1 sequence (looked up)

- Kd [1]: 120 nM
- Kd [2]: 10 nM
- Kd [3]: 2000 nM
- Relative FcgRIIb-binding Activity [4]: 25.8
- Relative FcgRIIaR-binding Activity [5]: 0.5
B1: IL6R-BP262/IL6R-L (antibody, human IgG1, kappa, name in EU numbering)
heavy: QVQLQESGPGLVKPSETLSLTCAVSGHSISHDHAWSWVRQPPGEGLEWIGFISYSGITNYNPSLQGRVTISRDNSKNTLYLQMNSLRAEDTAVYYCARSLARTTAMDYWGEGTLVTVSSASTKGPSVFPLAPSSKSTSGGTAALGCLVKDYFPEPVTVSWNSGALTSGVHTFPAVLQSSGLYSLSSVVTVPSSSLGTQTYICNVNHKPSNTKVDKKVEPKSCDKTHTCPPCPAPELLGDDSVFLFPPKPKDTLMISRTPEVTCVVVDVSEEDGEVKFNWYVDGVEVHNAKTKPREEQYNSTYRVVSVLTVLHQDWLNGKEYKCKVSNKALPAPIEKTISKAKGQPREPQVYTLPPSRDELTKNQVSLTCLVKGFYPSDIAVEWESNGQPENNYKTTPPVLDSDGSFFLYSKLTVDKSRWQQGNVFSCSVMHEALHNHYTQESLSLSP
light: not shown
notes: human IgG1

- Relative FcgRIIaR-binding Activity (FcgRIIaR): 6.4 IL6R-G1d/IL6R-L=100
- Relative FcgRIIb-binding Activity (FcgRIIb): 71.9 IL6R-G1d/IL6R-L=100
B2: IL6R-P635/IL6R-L (antibody, human IgG1, kappa)
heavy: B1 heavy with E235D, D239G, V266I, S269K, E441K
light: not shown

- Kd [1]: 21 nM
- Kd [2]: 1.4 nM
- Kd [3]: 540 nM
- Relative FcgRIIb-binding Activity [4]: 149
- Relative FcgRIIaR-binding Activity [5]: 2
B3: IL6R-BP508/IL6R-L (antibody, human IgG1, kappa, name in EU numbering)
heavy: B1 heavy with E235D, V266I, S269A, E274P, Y298D
light: not shown
notes: human IgG1

- Kd [1]: 21 nM
- Kd [2]: 1.1 nM
- Kd [3]: 430 nM
- Relative FcgRIIb-binding Activity [4]: 144
- Relative FcgRIIaR-binding Activity [5]: 2.5
B4: IL6R-BP505/IL6R-L (antibody, human IgG1, kappa, name in EU numbering)
heavy: B1 heavy with E235D, V266I, S269A, E274D
light: not shown
notes: human IgG1

- Relative FcgRIIaR-binding Activity (FcgRIIaR): 34 IL6R-G1d/IL6R-L=100
- Relative FcgRIIb-binding Activity (FcgRIIb): 171 IL6R-G1d/IL6R-L=100
B5: IL6R-P644/IL6R-L (antibody, human IgG1, kappa)
heavy: B1 heavy with E235D, D239K, V266I, S269A, Y298D, A332R, P398M, E441K
light: not shown

- Relative FcgRIIaR-binding Activity (FcgRIIaR): 75.7 IL6R-G1d/IL6R-L=100
- Relative FcgRIIb-binding Activity (FcgRIIb): 168 IL6R-G1d/IL6R-L=100
B6: IL6R-P651/IL6R-L (antibody, human IgG1, kappa)
heavy: B1 heavy with E235D, V266I, S269R, Y298D, A332R, P398M, E441K
light: not shown

- Relative FcgRIIaR-binding Activity (FcgRIIaR): 78.3 IL6R-G1d/IL6R-L=100
- Relative FcgRIIb-binding Activity (FcgRIIb): 176 IL6R-G1d/IL6R-L=100
B7: IL6R-P638/IL6R-L (antibody, human IgG1, kappa)
heavy: B1 heavy with E235D, L236H, V266I, S269A, Y298D, A332R, P398M, E441K
light: not shown

- Relative FcgRIIaR-binding Activity (FcgRIIaR): 72.5 IL6R-G1d/IL6R-L=100
- Relative FcgRIIb-binding Activity (FcgRIIb): 175 IL6R-G1d/IL6R-L=100
B8: IL6R-P646/IL6R-L (antibody, human IgG1, kappa)
heavy: B1 heavy with E235D, V266I, D267N, S269A, Y298D, A332R, P398M, E441K
light: not shown

- Relative FcgRIIaR-binding Activity (FcgRIIaR): 10.8 IL6R-G1d/IL6R-L=100
- Relative FcgRIIb-binding Activity (FcgRIIb): 33.9 IL6R-G1d/IL6R-L=100
B9: IL6R-P664/IL6R-L (antibody, human IgG1, kappa, N297A)
heavy: B1 heavy with E235D, D239G, V266I, S269A, N299A, E441K
light: not shown

- Relative FcgRIIaR-binding Activity (FcgRIIaR): 5.8 IL6R-G1d/IL6R-L=100
- Relative FcgRIIb-binding Activity (FcgRIIb): 38.1 IL6R-G1d/IL6R-L=100
B10: IL6R-P700/IL6R-L (antibody, human IgG1, kappa)
heavy: B1 heavy with E235D, L236A, D239G, V266I, S269R, E441K
light: not shown

- Relative FcgRIIaR-binding Activity (FcgRIIaR): 58.7 IL6R-G1d/IL6R-L=100
- Relative FcgRIIb-binding Activity (FcgRIIb): 178 IL6R-G1d/IL6R-L=100
B11: IL6R-P643/IL6R-L (antibody, human IgG1, kappa)
heavy: B1 heavy with E235D, D239R, V266I, S269A, Y298D, A332R, P398M, E441K
light: not shown

- Relative FcgRIIaR-binding Activity (FcgRIIaR): 40.3 IL6R-G1d/IL6R-L=100
- Relative FcgRIIb-binding Activity (FcgRIIb): 152 IL6R-G1d/IL6R-L=100
B12: IL6R-P648/IL6R-L (antibody, human IgG1, kappa)
heavy: B1 heavy with E235D, V266I, D267S, S269A, Y298D, A332R, P398M, E441K
light: not shown

- Kd [1]: 78 nM
- Kd [2]: 1.3 nM
- Kd [3]: 1300 nM
- Relative FcgRIIb-binding Activity [4]: 39.6
- Relative FcgRIIaR-binding Activity [5]: 0.8
B13: IL6R-BP483/IL6R-L (antibody, human IgG1, kappa, name in EU numbering)
heavy: B1 heavy with E235D, V268L, S269A
light: not shown
notes: human IgG1

- Relative FcgRIIaR-binding Activity (FcgRIIaR): 2.9 IL6R-G1d/IL6R-L=100
- Relative FcgRIIb-binding Activity (FcgRIIb): 6.9 IL6R-G1d/IL6R-L=100
B14: IL6R-P649/IL6R-L (antibody, human IgG1, kappa)
heavy: B1 heavy with E235D, V266I, D267V, S269A, Y298D, A332R, P398M, E441K
light: not shown

- Kd [1]: 6.6 nM
- Kd [2]: 3.9 nM
- Kd [3]: 250 nM
- Relative FcgRIIb-binding Activity [4]: 470
- Relative FcgRIIaR-binding Activity [5]: 4.3
B15: IL6R-BP494/IL6R-L (antibody, human IgG1, kappa, name in EU numbering)
heavy: B1 heavy with S269A, Y298D, A332R
light: not shown
notes: human IgG1

- Relative FcgRIIaR-binding Activity (FcgRIIaR): 6.1 IL6R-G1d/IL6R-L=100
- Relative FcgRIIb-binding Activity (FcgRIIb): 73.7 IL6R-G1d/IL6R-L=100
B16: IL6R-P696/IL6R-L (antibody, human IgG1, kappa)
heavy: B1 heavy with E235D, D239R, V266I, S269R, E441K
light: not shown
